This passage reports percent monomeric and stoichiometry N results from article PMC8615523.

A word on the stoichiometry N: it is a count of units in the complex or per binding partner.

Experiment in all cases: SEC; Ni-NTA eluates injected into a HiLoad 16/60 Superdex 200 pg column; elution with 30 mM Tris-HCl pH 7.4; absorbance at 280 nm
In general terms: SEC sorts molecules by how far they enter the pores of the column.

Test [1] concerns the target cpmCarmine185-186.
The target in test [2] is cpmMaroon185-186.
In test [3] the target is cpmMaroon196-186.

Take cpmCarmine185-186: in test [1], the percent monomeric was 60%.
As to cpmMaroon185-186, the stoichiometry N in test [2] was determined as 2.
Regarding cpmMaroon196-186, in test [3], the percent monomeric came to 70%.
